Measurements published in the RNAGym collection of RNA variant scans (doi:10.1073/pnas.2313332121).

B1: TPR t1 (parent)
chain: GACCAAUCUGCCCUCAGAGCUCGAGAACAUCUUCGGAUGCAGAGGAGGCAGGCUUCGGUGGCGCGAUAGCGCCAACGUCCUCAACCUCCAAUGCAUCCCACCACAUGAUGAUGCCUGAAGAGCCUUGGUUUUUUG

Variants of: B1
Assay: polymerase ribozyme fitness, log enrichment relative to wild type (log ratio); higher = more active; in vitro selection for triplet polymerase activity
Outline: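 For each subunit of a heterodimeric triplet polymerase ribozyme, a mutant library was built by PCR and transcribed, then taken through a single in vitro selection round in triplicate. Selection involved annealing to a biotinylated primer, the partner subunit and triplets, incubation frozen at −7 °C, gel excision of extended constructs, capture on streptavidin beads and RT-PCR. Genotypes were retained after Illumina sequencing of inputs and outputs only with ≥10 input reads and ≥1 read in each output. Fitness is defined as the logarithm of a genotype's enrichment relative to wild-type enrichment, using inverse-variance-weighted averages across replicates, with the logarithm taken to base 2.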

Point of comparison: G39C G48U A75U, “polymerase ribozyme fitness (log ratio)” value -1.28. Against it:
- C40A U54G C62U — lower, -1.83
- C40A C64U C85A C102A U112G C123U — lower, -5.99
- G39U G61U A121C — higher, 1.22
- G39U G58C G71A G110C — lower, -6.06
- C40A A43U G44C G110U C114U — lower, -5.04
- C40G G47U C49A — lower, -3.74
- G39U C102A — lower, -3.45
- C40A G48A U55A G60U A95G G120C — higher, -1.07
- G39C C115U C124A — higher, -0.672
- G39U C49A A100U U106A — lower, -1.51
- G39U G60U U129G — lower, -2.5
- C40G C56A C86U — lower, -1.71
- C40A A108G A119G G122U — lower, -2.47
- C40A G52A C72U A91G — lower, -4.17
- G39U C88A — lower, -2.37
- G39U C88U — higher, -0.766
- G39U G44C U59A — lower, -2.12
- G39U C56A — higher, -1.06
- G39U C56U — higher, 0.0586
- G39U C56G — within 0.2 log units, -1.37
- G39A G58A A91U — lower, -2.28
- G39U C62U C85A A90G A119U C123G U125G — within 0.2 log units, -1.09
- G39U G63U A121U G135A — higher, 0.925
- G39U G42C — lower, -2.2
- G39U G48C U78G G113U — lower, -4.42
- C40A G71A U125A — lower, -2.51
- C40A G60A G61A U112A — lower, -3
- C40G A75U G127A — lower, -2.31
- C40G C56G — within 0.2 log units, -1.42
- C40G C86G — lower, -2.86
- G39C A50U C53U U78G — lower, -2.26
- C40G C70U — lower, -1.65
- C40A C79G — lower, -3.35
- C40A A50U — lower, -1.94
- C40G A43U C73A U126C — lower, -3.57
- G39U A50C — within 0.2 log units, -1.21
- G39A G63C — lower, -1.48
- G39A G63U — lower, -2.24
- G39U G58A A105C — lower, -5.05
- G39U A46G U78A C89U A95U C97U — lower, -2.4
- C40G A43U U59A C70A C114A G117U — lower, -6.29
- C40G G52A G117A — lower, -2.65
- G39A G45C G51C G69U U125G — lower, -2.57
- G39C C40U G69A — lower, -4.36
- C40A G63C C123U — higher, -0.868
- G39U C101A — lower, -2.22
- G39A G117U — lower, -2.58
- G39A G117A — lower, -1.8
- G39A G117C — lower, -4.05
- G39U C76G — higher, -0.793
- G39U C76U — higher, -0.958
- G39A G63U C82U U133G — lower, -2.41
- G39U G60C C62U C97U — lower, -3.98
- G39U A43C C49A — lower, -3.34
- G39U G60A G61A U87C C101U — lower, -3.02
- C40A C56U A119U G122A — lower, -1.84
- C40G C114U C123U — lower, -4.09
- G39C G63C C104A — lower, -3.07
- C40A C72U G77C G110U — lower, -3.75
- G39U U54G C56A A83C C89U — lower, -3.7
- G39C C73A A74U — higher, -0.844
- C40G C62A C124A — higher, -0.241
- C40A G117U — lower, -4.5
- G39U G48A C70U — within 0.2 log units, -1.15
- G39A G47U G48A C70U C101A — lower, -5.46
- C40G C79U — within 0.2 log units, -1.27
- C40G C79A — lower, -2.58
- C40A C70A G93U — lower, -1.59
- C40G C104A C124G — higher, 0.0636
- G39U C72U — lower, -1.72
- C40G C53U C94G G107U C124U U125G — lower, -7.6
- C40A G69C U106A C124A — lower, -1.51
- C40A C94G G120A U129A — lower, -3.13
- G39C U112A — higher, 0.828
- G39C G45U G61A U112C — higher, 0.603
- C40A G45U G63A G69C C82A C86G C101U C114G — lower, -6.64
- C40A G48A G117C — lower, -5.6
- G39U G69A U78A G120C U133C — lower, -2.17
- G39A G69U C79A G127A — lower, -2.91
- C40A A111U — lower, -4.74
- C40A A43G C53U G58A — lower, -4.13
- G39U C40G C64U U106A U109A G120C — lower, -5.69
- G39A U92C — lower, -2.34
- G39A U92A — lower, -3.56
- C40G A50U G120C — higher, -0.881
- C40G C53G G77A U106C U116C — lower, -3.58
- G39U C64U A84C — higher, -0.386
- G39C C98U G117A — lower, -3.94
- C40A G77A — within 0.2 log units, -1.33
- C40A G77C — lower, -1.98
- C40G C104A — lower, -2.31
- C40G C72U U78C — within 0.2 log units, -1.15
- C40A C104U G110U A111U C123G U125G — lower, -6.57
- G39C C62U G63A — lower, -3.77
- G39A G61U A100C C123A — within 0.2 log units, -1.14
- G39A G69C U112A — within 0.2 log units, -1.42
- G39C G120A — higher, 0.0157
- C40A G44C C53A U55G G128A — lower, -3.45
- C40G G44C A74U — lower, -1.5
- G39C C76U U126G — lower, -2.72
- G39U C53U G61U C123A G135U — higher, -0.952
- C40A G63U U81A U129A — lower, -5.05
- C40A C70U — higher, -0.716
- C40A G61C C79G — lower, -3.56
- C40G C102A A118U — lower, -2.92
- G39U G128U — lower, -3.06
- C40A G52A G58A C62U A119U U126A — lower, -4
- C40G C85A — lower, -2.32
- G39U G69U — higher, 0.0399
- C40A G60A U81A — lower, -2.66
- C40A A43U C89U C102U U106C C123A — lower, -6.44
- G39C A41U — lower, -2.47
- C40G G51U U87A A90G G117U — lower, -5.66
- C40A G60A — higher, -1.03
- C40A G60C — lower, -3.13
- G39C A43G G48U U54G G93C G113A — lower, -5.27
- G39C C56G C72U — lower, -1.49
- G39A G60U — higher, 0.0117
- G39A G60A — higher, -0.734
- G39C G71A — within 0.2 log units, -1.21
- G39C C53G G107C A121U — lower, -4.92
- C40A C56G U87G A95U C101A C124A U133C — lower, -5.07
- C40A G45A C56U G110C — lower, -6.54
- C40G A46G C64U — lower, -1.62
- C40G C56U C88U G122U — lower, -2.63
- C40A C80G U109A U133A — lower, -7.59
- G39C A111C G113A — lower, -3.44
- G39C — higher, -0.776
- G39U — higher, -0.799
- C40A G61A C80U — lower, -2.91
- G39U G63U G113A — lower, -3.09
- C40A G61A A105G — lower, -4.93
- C40A U81C — lower, -1.68
- C40A A91G C99U A111U G122A — lower, -6.79
- C40G G48U G69U — lower, -1.67
- C40G G48U U92A — lower, -4.05
- G39U U78C A121U — higher, 1.16
- G39U U112C G127A — higher, -0.476
- C40A C73U U125G — lower, -1.92
- C40A C89G — lower, -2.81
- C40A G61A — higher, -0.734
- C40A G61U — lower, -1.59
- C40A U112A — higher, -0.958
- C40A C94G C97U G113U — lower, -7.66
- G39C C79A — lower, -3.06
- G39U C73U C99U — lower, -4.75
- C40A C70U G113A — lower, -2.79
- G39C C97U G120C — higher, 0.357
- G39U C70U U96G G113U — lower, -7.29
- C40A A46U — lower, -3.32
- C40A C56G A105C U106G — lower, -4.78
- G39U C88U G107U G113A G122A — lower, -6.96
- C40G C72G — lower, -1.56
- C40G A84U — lower, -1.56
- C40G G47U G71U — lower, -6.34
- G39U C73U C114U G120A G127C — lower, -3.02
- C40G C72G C115G C123G G128C — lower, -4.8
- C40A G48A — lower, -2.24
- G39U G45U G48A C73A C79G G113A — lower, -5.88
- C40G C56A G57U C70A C72U G77A — lower, -4.22
- G39A G71A — higher, -1.08
- G39A G71U — higher, -0.815
- C40A A84G C104A G120C G135A — lower, -4.9
- C40A A66C G77A — lower, -3.74
- G39U A91U U126G G128U — lower, -3.6
- C40G C62U — lower, -1.8
